In patent US20230322924A1 (Janssen / Centocor, published 2023):

T1: Cynomolgous monkey PSMA, full length, on HEK293F cells (Macaca fascicularis (cynomolgus monkey))
T1 construct: stably transfected HEK293F cells; also called cyno PSMA; Cyno-PSMA HEK
T1 chain: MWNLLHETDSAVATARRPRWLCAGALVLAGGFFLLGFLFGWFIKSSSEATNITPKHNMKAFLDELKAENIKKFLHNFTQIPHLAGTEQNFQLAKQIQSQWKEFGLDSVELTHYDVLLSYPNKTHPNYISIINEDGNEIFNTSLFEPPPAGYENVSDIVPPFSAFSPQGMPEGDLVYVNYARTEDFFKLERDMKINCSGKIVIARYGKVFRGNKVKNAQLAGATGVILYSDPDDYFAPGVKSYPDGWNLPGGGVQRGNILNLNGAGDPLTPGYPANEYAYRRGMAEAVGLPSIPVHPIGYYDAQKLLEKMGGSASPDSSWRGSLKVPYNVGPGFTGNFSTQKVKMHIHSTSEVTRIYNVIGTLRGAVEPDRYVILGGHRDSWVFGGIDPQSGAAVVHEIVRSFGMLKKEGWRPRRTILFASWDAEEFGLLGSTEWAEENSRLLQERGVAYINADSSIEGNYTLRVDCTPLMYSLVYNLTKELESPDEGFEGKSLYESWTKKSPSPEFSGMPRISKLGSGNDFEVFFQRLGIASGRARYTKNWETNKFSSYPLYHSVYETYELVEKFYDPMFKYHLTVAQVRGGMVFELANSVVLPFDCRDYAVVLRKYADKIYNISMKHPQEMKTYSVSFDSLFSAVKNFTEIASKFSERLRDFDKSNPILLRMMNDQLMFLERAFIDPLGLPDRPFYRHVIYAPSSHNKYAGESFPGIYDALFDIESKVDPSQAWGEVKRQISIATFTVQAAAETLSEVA

T2: chimpanzee PSMA, full length, on HEK293F cells (Pan troglodytes (chimpanzee))
T2 construct: stably transfected HEK293F cells; also called chimp PSMA; chimp-PSMA HEK
T2 chain: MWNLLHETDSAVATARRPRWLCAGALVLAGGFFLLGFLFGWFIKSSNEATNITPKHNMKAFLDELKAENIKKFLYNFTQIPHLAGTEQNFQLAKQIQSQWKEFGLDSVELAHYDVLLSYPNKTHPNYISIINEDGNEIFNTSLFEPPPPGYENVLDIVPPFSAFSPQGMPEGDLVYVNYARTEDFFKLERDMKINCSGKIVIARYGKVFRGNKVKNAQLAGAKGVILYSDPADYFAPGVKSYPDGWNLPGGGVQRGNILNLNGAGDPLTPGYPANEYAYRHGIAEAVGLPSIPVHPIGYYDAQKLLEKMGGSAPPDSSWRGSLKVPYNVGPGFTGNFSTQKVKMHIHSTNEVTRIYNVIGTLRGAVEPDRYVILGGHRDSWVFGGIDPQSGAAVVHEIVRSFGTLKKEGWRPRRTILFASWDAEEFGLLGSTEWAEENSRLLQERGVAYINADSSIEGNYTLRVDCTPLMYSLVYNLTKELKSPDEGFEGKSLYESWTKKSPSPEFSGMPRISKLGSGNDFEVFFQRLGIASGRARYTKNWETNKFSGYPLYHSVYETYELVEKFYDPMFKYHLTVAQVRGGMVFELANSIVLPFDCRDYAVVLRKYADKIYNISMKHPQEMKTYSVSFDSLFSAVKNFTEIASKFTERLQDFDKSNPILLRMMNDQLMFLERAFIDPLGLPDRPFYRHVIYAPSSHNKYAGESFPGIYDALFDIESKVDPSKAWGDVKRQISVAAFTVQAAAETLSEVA


Assays:
[1] = biological target: T3, human PSMA on LNCaP cells (human, UniProt Q04609 1-750); test: flow cytometry, Fab supernatant, LNCaP cells
T3 construct: PSMA of the LNCaP prostate cancer cell line itself
T3 sequence (Q04609 whole entry): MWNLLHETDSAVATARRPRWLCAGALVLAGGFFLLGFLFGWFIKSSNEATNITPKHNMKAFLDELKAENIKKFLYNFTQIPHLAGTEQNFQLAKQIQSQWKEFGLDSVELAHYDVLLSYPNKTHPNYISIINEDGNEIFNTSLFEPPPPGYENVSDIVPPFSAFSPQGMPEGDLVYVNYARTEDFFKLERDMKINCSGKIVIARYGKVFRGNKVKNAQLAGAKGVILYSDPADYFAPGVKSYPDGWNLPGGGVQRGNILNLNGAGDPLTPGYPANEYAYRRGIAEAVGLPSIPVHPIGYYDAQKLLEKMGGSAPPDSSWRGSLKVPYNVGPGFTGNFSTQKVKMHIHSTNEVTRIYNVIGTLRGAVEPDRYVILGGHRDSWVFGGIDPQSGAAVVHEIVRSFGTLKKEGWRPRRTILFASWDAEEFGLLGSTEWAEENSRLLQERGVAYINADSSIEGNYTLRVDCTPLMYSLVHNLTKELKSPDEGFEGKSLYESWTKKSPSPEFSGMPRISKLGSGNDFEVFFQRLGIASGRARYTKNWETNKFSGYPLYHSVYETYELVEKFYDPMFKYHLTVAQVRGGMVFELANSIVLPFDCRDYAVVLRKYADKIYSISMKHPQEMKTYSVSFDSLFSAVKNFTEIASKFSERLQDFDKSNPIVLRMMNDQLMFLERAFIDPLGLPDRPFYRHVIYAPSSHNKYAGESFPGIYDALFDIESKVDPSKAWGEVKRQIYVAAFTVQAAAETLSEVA
Method: (§1) A cell-based binding assay was designed to assess the binding capabilities of individual Fab-his fusions from E. coli supernatants to PSMA-expressing cells. Individual Fab clones were isolated from the round 3 output of all panning experiments following pIX excision. Fab clones were tested for binding to chimp and cyno PSMA expressing HEK cells, as well as to human PSMA on LNCaP cells. Briefly, PSMA expressing cells were aliquoted into a V-bottom plate (CoStar 3357) at a density of 200,000 per well and incubated with (100 μl) supernatants expressing Fab fragments for 1 hour on ice. Cells were washed twice with PBS containing 2% FBS, and stained with a mouse anti-human kappa-RPE antibody (Life Technologies cat #MH10514) for 1 hour on ice. Cells were washed twice with PBS containing 2% FBS and resuspended in […] of the same wash buffer. Plates were read on a BD FACS Array flow cytometer. FACS data was analyzed in FlowJo software by live gating the healthy population of cells using forward scatter and side scatter, and then analyzing the cells within this gate for PE staining. Mean fluorescence intensity (MFI) was calculated and exported into Microsoft Excel. […] Fabs were sequenced and moved forward for cloning into mammalian expression vector for rescreening. True positives were selected from the binding of mammalian cell expressed Fab supernatants to PSMA-expressing cell lines.
(§2) Confirmation of mammalian expressed Fab supernatants was performed using the whole cell binding assay described previously. Binding of Fabs to human PSMA (LNCaP), chimpanzee, and cynomolgous monkey cells was tested, as well as counter screening for no binding to the parental HEK cell line.

[2] = biological target: T1, Cynomolgous monkey PSMA, full length, …; test: flow cytometry, Fab supernatant, cyno PSMA HEK cells
Method: as §1, with “Individual” for “A cell-based binding assay was designed to assess the binding capabilities of individual Fab-his fusions from E. coli supernatants to PSMA-expressing cells. Individual”
as §2

[3] = biological target: T2, chimpanzee PSMA, full length, on …; test: flow cytometry, Fab supernatant, chimp PSMA HEK cells
Method: as §1, with “Individual” for “A cell-based binding assay was designed to assess the binding capabilities of individual Fab-his fusions from E. coli supernatants to PSMA-expressing cells. Individual”
as §2

[4] = biological target: Human CD33 full length (human, UniProt P20138 18-364); test: cell-based or functional assay
Sequence of Human CD33 full length (P20138 18-364 limits assumed): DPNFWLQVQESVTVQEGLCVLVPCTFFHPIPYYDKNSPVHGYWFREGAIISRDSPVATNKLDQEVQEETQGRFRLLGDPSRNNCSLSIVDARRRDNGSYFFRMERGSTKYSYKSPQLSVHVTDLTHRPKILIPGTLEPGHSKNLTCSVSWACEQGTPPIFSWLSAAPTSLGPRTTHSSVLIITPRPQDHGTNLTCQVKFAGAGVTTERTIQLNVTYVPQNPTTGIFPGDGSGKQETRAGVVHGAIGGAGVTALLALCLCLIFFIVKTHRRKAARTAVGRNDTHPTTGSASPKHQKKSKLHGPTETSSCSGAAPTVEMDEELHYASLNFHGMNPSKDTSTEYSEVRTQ

Row | Binder | Geo-MFI [1] | Geo-MFI [2] | Geo-MFI [3] | Primary AML Cell Killing EC50 [4] [nM]
1 | PSMB56 (Fab, V domains shown, mammalian-expressed Fab supernatant (huG1 Fab and human kappa vectors); also called PSMM57) VH: QVQLVQSGAEVKKPGSSVKVSCKASGGTFSSYAISWVRQAPGQGLEWMGWISPYNGNANYAQKFQGRVTITADESTSTAYMELSSLRSEDTAVYYCARDSDRSYNLDYWGQGTLVTVSS VL: not shown | 24.5 | 95.6 | 34.7 | 
2 | PSMB18 (Fab, V domains shown, mammalian-expressed Fab supernatant (huG1 Fab and human kappa vectors); also called PSMM18) VH: EVQLVQSGAEVKKPGESLKISCKGSGYSFTSYWIGWVRQMPGKGLEWMGIIYPGDSDTRYSPSFQGQVTISADKSISTAYLQWSSLKASDTAMYYCARAYHYSKGLDYWGQGTLVTVSS VL: not shown |  | 696 | 439 | 
3 | PSMB25 (Fab, V domains shown, mammalian-expressed Fab supernatant (huG1 Fab and human kappa vectors); also called PSMM25) VH: EVQLVQSGAEVKKPGESLKISCKGSGYSFTSYWIGWVRQMPGKGLEWMGIIYPGDSDTRYSPSFQGQVTISADKSISTAYLQWSSLKASDTAMYYCARGWAYDRGLDYWGQGTLVTVSS VL: not shown | 16.9 | 15.2 | 11.3 | 
4 | PSMB49 (Fab, V domains shown, mammalian-expressed Fab supernatant (huG1 Fab and human kappa vectors); also called PSMM50) VH: QVQLVQSGAEVKKPGSSVKVSCKASGGTFSSYAISWVRQAPGQGLEWMGGIIPIFGTANYAQKFQGRVTITADESTSTAYMELSSLRSEDTAVYYCARASRVWHASYGYLDYWGQGTLVTVSS VL: EIVLTQSPATLSLSPGERATLSCRASQSVSKWLAWYQQKPGQAPRLLIYDASNRATGIPARFSGSGSGTDFTLTISSLEPEDFAVYYCQQRFTAPWTFGQGTKVEIK | 3.22 | 51.6 | 22 | 
5 | PSMB55 (Fab, V domains shown, mammalian-expressed Fab supernatant (huG1 Fab and human kappa vectors); also called PSMM56) VH: EVQLVQSGAEVKKPGESLKISCKGSGYSFTSYWIGWVRQMPGKGLEWMGIIYPGDSDTRYSPSFQGQVTISADKSISTAYLQWSSLKASDTAMYYCARGLPIWYLDYWGQGTLVTVSS VL: EIVLTQSPATLSLSPGERATLSCRASQSVASDLAWYQQKPGQAPRLLIYFASNRATGIPARFSGSGSGTDFTLTISSLEPEDFAVYYCQQSITWPFTFGQGTKVEIK | 17.2 | 226 | 180 | 
6 | PSMB51 (Fab, V domains shown, mammalian-expressed Fab supernatant (huG1 Fab and human kappa vectors); also called PSMM52) VH: QVQLVQSGAEVKKPGSSVKVSCKASGGTFSSYAISWVRQAPGQGLEWMGWIIPYNGNANYAQKFQGRVTITADESTSTAYMELSSLRSEDTAVYYCARVNSAALVWERLDYWGQGTLVTVSS VL: DIQMTQSPSSLSASVGDRVTITCRASQSIDRWLNWYQQKPGKAPKLLIYAASSLQSGVPSRFSGSGSGTDFTLTISSLQPEDFATYYCQQSPRYPLTFGQGTKVEIK | 41.5 | 285 | 231 | 
7 | PSMB109 (Fab, V domains shown, mammalian-expressed Fab supernatant (huG1 Fab and human kappa vectors); also called PSMM110) VH: QVQLVQSGAEVKKPGSSVKVSCKASGGTFSSYAISWVRQAPGQGLEWMGWISPYNGNANYAQKFQGRVTITADESTSTAYMELSSLRSEDTAVYYCARVNSAALVWERLDYWGQGTLVTVSS VL: DIQMTQSPSSLSASVGDRVTITCRASQSIDRWLNWYQQKPGKAPKLLIYAASSLQSGVPSRFSGSGSGTDFTLTISSLQPEDFATYYCQQSPRYPLTFGQGTKVEIK | 34.9 | 321 | 326 | 
8 | PSMB80 (Fab, V domains shown, mammalian-expressed Fab supernatant (huG1 Fab and human kappa vectors); also called PSMM81) VH: QVQLVQSGAEVKKPGSSVKVSCKASGGTFDDYAISWVRQAPGQGLEWMGRIDPIEGTANYAQKFQGRVTITADESTSTAYMELSSLRSEDTAVYYCARDRYYYDGVYWYSDYFDYWGQGTLVTVS VL: not shown | 20.9 | 19.6 | 18.6 | 
9 | PSMB58 (Fab, V domains shown, mammalian-expressed Fab supernatant (huG1 Fab and human kappa vectors); also called PSMM59) VH: EVQLVQSGAEVKKPGESLKISCKGSGYSFTSYWISWVRQMPGKGLEWMGIIYPGDSYTRYSPSFQGQVTISADKSISTAYLQWSSLKASDTAMYYCARDYEWELFDSRLDYWGQGTLVTVSS VL: not shown | 25.3 | 121 | 192 | 
10 | C3CB11 (bispecific antibody, IgG4, V domains shown) VH 1: QVQLVESGGGVVQPGRSLRLSCVASGFTFSSYGMHWVRQAPGKGLEWVAVISYDGSNKYYADSVKGRFTISRDNSKNTLYLQMNSLRAEGTAVYYCAKDFRSFDWLPPDSASYHGMDVWGQGTTVTVSS VL 1: SYELTQPPSVSVSPGQTASITCSGDKLGDKYACWYQQKPGQSPVLVIYQDGKRPSGIPERFSGSNFGNKATLTISGTQAMDEADYYCQAWDRNTVVFGGGTKLTVL VH 2: EVQLVESGGGLVQPGGSLRLSCAASGFTFNTYAMNWVRQAPGKGLEWVARIRSKYNNYATYYAASVKGRFTISRDDSKNSLYLQMNSLKTEDTAVYYCARHGNFGNSYVSWFAYWGQGTLVTVSS VL 2: QTVVTQEPSLTVSPGGTVTLTCRSSTGAVTTSNYANWVQQKPGQAPRGLIGGTNKRAPGTPARFSGSLLGGKAALTLSGVQPEDEAEYYCALWYSNLWVFGGGTKLTVL |  |  |  | 3.96
11 | PSMB84 (Fab, V domains shown, mammalian-expressed Fab supernatant (huG1 Fab and human kappa vectors); also called PSMM85) VH: EVQLLESGGGLVQPGGSLRLSCAASGFTFDSDWMSWVRQAPGKGLEWVSAISGNGGSTEYADSVKGRFTISRDNSKNTLYLQMNSLRAEDTAVYYCARDPYYYYDGDSYYGMDVWGQGTLVTVSS VL: not shown | 192 | 750 | 729 | 
12 | PSMB86 (Fab, V domains shown, mammalian-expressed Fab supernatant (huG1 Fab and human kappa vectors); also called PSMM87) VH: QVQLVQSGAEVKKPGSSVKVSCKASGGTFKSYDISWVRQAPGQGLEWMGGIIPIEGTANYAQKFQGRVTITADESTSTAYMELSSLRSEDTAVYYCARDYPAGYGFDYWGQGTLVTVSS VL: not shown | 31.7 | 224 | 176 | 
